Measured values reported in patent publication US20250084169A1.
Several values for one entry are separate records, joined by “and”; a condition that tells them apart may be missing. Equal values may be shown once.

Assays:
[1] = molecular target: SARS-CoV-2 spike South African Δ3 B.1.351 variant on pseudovirus (RVP-724) (SARS-CoV-2) (UniProt P0DTC2); experiment: cell-based or functional assay
[2] = molecular target: SARS-CoV-2 spike N439K variant on pseudovirus (RVP-703) (SARS-CoV-2) (UniProt P0DTC2); experiment: cell-based or functional assay

## Imdevimab (biosimilar version) (antibody)
[1]
  EC50 (pM) Neutralization, pseudovirus: 2.48 pM and 2.37 pM
[2]
  EC50 (pM) Neutralization, pseudovirus: 2260 pM and 2220 pM
  fold less potent than REGN10933, pseudovirus neutralization: 1000 fold
